Positions of bridges follow the written chain, without caps; N, C: chain ends. No end group written: not given here.
Legend:
[1] = target: mouse PD-L1 protein (G&P Biosciences, cat #FCL3502B) (mouse) (UniProt Q9EP73); test: ELISA, blocking of mouse PD-1 binding to mouse PD-L1 protein, 10 µM
[2] = target: T1, recombinant human PD-L1 protein (Acro Biosystems, cat #EP-101 assay pair) (human, UniProt Q9NZQ7 19-238); test: ELISA, blocking of biotinylated human PD-1 binding to coated human PD-L1
T1 construct: Bought protein; construct not described; also called hPD-L1; human PD-L1 (AcroBiosystems, cat #EP-101)
T1 sequence (Q9NZQ7 19-238 limits assumed): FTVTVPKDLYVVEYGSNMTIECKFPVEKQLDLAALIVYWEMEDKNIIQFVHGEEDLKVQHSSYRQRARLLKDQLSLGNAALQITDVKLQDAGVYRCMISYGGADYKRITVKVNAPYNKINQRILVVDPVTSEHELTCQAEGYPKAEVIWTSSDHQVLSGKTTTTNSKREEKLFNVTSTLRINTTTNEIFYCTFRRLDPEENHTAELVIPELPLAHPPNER
Protocol: (§1) Unbound protein was removed by washing twice with PBS (pH 7.2-7.4), 2% BSA was added for 1.5 h at 37° C. to block the plate. Specific concentrations of the peptides were dispensed into the appropriate wells and incubated for 2 h at 37° C. […] This was followed by the addition of streptavidin-HRP and chromogenic substrate (R&D systems). The color reaction was terminated with 2N H₂SO₄, absorbance was recorded at OD450 and referenced to OD540.

[3] = target: T1, recombinant human PD-L1 protein (Acro …); test: competitive SPR, peptide preincubated with human PD-L1, injected over immobilised PD-1
Protocol: BI-4500A SPR and a CM-5 sensor chip pre-functionalized with streptavidin (Biosensing Instrument Inc., Tempe, Ariz.) were employed for the SPR analysis. […] Data was analyzed with SPR Data Analysis Version 3.8.4 (Biosensing Instrument Inc., Tempe, Ariz.).
(§2) In this Example, various properties of the peptides of SEQ ID NO:5, SEQ ID NO:6 and SEQ ID NO:7 were evaluated. The procedures for generating these values are described above in the beginning of the Examples section.

[4] = target: T1, recombinant human PD-L1 protein (Acro …); test: ELISA, blocking of biotinylated human PD-1 binding to coated human PD-L1, 10 µM
Protocol: as §1, §2

bovine serum albumin [5] = target: T2, bovine serum albumin (bovine, UniProt P02769 25-607); test: SPR, BSA immobilised
T2 construct: Specificity control in SPR; also called BSA
T2 sequence (P02769 25-607 limits assumed): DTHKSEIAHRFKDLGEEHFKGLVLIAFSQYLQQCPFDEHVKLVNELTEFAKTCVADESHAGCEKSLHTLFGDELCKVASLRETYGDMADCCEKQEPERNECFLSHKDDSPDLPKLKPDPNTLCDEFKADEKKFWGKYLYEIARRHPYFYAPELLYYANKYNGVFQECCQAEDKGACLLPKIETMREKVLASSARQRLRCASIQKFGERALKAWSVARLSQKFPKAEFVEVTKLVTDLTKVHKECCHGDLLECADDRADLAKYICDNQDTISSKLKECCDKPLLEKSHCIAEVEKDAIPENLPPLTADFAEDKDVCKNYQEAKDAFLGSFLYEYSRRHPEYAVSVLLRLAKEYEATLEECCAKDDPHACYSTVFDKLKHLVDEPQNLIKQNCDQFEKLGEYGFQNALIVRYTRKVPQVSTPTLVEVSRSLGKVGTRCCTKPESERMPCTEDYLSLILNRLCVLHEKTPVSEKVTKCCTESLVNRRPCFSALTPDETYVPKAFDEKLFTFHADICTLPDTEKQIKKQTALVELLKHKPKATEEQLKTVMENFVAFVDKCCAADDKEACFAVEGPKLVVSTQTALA

[6] = target: T3, recombinant human PD-L1 extracellular domain (ECD) protein (cat #FCL0784B, G&P Biosciences) (human, UniProt Q9NZQ7 19-238); test: SPR, PD-L1 immobilised
T3 construct: extracellular domain; Bought protein; also called hPD-L1 protein; human PD-L1 protein
T3 sequence (Q9NZQ7 19-238): as the sequence (Q9NZQ7 19-238 limits assumed) above
Protocol: (§3) Evaluation of Binding Kinetics and Affinity By Surface Plasmon Resonance (SPR). […] PD-L1 protein was diluted to 10 μg/mL with sodium acetate buffer (pH 5.0, GE Healthcare, PA) and covalently coated onto a CM5 sensor chip (CM Dextran Sensor Chip, Biosensing Instrument) using the standard Amine Coupling Kit (GE Healthcare, PA). Approximately 6500 RU of PD-L1 protein were immobilized onto the chip. A second channel was used as a reference. HBS-EP+ buffer (GE Healthcare) was employed at a flow rate of 60 μL/min. […] The CM5 sensor chip was regenerated with 10 mM NaOH for 20 seconds. The results were analyzed using the software of Bi data analysis software.

[7] = target: T4, mouse PD-L1 (Acro Biosystems, cat #PD1-M5220) (mouse, UniProt Q9EP73 19-238); test: ELISA, blocking of biotinylated mouse PD-1 binding to coated mouse PD-L1
T4 construct: Bought protein; construct not described; also called mPD-L1
T4 sequence (Q9EP73 19-238 limits assumed): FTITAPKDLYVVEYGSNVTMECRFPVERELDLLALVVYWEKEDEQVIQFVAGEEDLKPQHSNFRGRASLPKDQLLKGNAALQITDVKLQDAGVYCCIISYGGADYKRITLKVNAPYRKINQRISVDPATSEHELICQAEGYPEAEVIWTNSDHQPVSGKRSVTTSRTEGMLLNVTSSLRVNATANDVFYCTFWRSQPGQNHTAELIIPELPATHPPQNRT
Protocol: as §1, §2

[8] = target: T3, recombinant human PD-L1 extracellular …; test: PD1/PD-L1 blocking assay of Table 5 (format not stated)
[9] = target: T3, recombinant human PD-L1 extracellular …; test: PD1/PD-L1 blocking assay of Table 5 (format not stated), 10 µM
[10] = target: T3, recombinant human PD-L1 extracellular …; test: ELISA, blocking of PD-1 binding to coated human PD-L1 protein
Protocol: (§4) Various concentrations of peptides were loaded into the wells and incubated for 1 hour at room temperature. […] Streptavidin-HRP (R&D systems) and chromogenic substrate were added into the wells. OD₄₅₀ was then recorded and referenced to OD₅₄₀.

[11] = target: T3, recombinant human PD-L1 extracellular …; test: blocking of the human CD80/PD-L1 interaction, 10 µM
bovine serum albumin [12] = target: T2, bovine serum albumin; test: SPR, albumin (BSA) immobilised, peptide series injected
Protocol: as §3
Nonspecific binding of the peptides against bovine serum albumin (BSA) using SPR was measured. […] MCF-7 human cancer cells are PD-L1 deficient and used as a negative control in this study. […] Results are represented as the mean±SD (n=3).

[13] = target: T5, human PD-L1 on DU-145 cancer cells (human, UniProt Q9NZQ7 19-290); test: blocking of PD-1 binding to DU-145 cells
T5 construct: whole, on cells; Endogenous PD-L1 of a PD-L1-positive human cancer cell line
T5 sequence (Q9NZQ7 19-290): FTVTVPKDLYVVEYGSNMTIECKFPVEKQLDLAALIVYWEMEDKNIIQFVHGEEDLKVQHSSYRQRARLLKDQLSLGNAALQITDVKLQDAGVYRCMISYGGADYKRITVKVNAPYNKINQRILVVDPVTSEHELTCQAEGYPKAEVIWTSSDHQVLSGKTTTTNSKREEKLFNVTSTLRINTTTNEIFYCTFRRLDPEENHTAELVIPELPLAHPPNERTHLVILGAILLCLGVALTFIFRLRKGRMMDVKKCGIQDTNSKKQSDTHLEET

[14] = target: T3, recombinant human PD-L1 extracellular …; test: SPR, human PD-L1 ECD immobilised on CM5 chip
Protocol: as §3
The PD-L1 protein was immobilized on a CM5 golden chip by the direct amine coupling method. […] In a recent study, scientists constructed several chimeric antigen receptor (CAR) T cells with different affinities to ICAM-1.

[15] = target: T6, mouse PD-L1 on 4T1 cancer cells (mouse, UniProt Q9EP73 19-290); test: blocking of mouse PD-1 binding to 4T1 cells
T6 construct: whole, on cells; also called mouse cancer cell line 4T1
T6 sequence (Q9EP73 19-290): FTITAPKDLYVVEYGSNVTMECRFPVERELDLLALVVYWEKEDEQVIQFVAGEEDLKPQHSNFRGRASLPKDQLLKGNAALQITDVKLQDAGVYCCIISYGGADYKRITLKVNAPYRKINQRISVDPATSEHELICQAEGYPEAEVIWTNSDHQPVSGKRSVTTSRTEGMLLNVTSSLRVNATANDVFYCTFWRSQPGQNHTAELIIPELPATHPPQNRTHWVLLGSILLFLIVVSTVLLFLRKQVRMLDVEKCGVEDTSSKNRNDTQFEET

[16] = target: T7, mouse PD-L1 protein (G&P Biosciences, cat #FCL3502B) (mouse, UniProt Q9EP73 19-239, limits assumed); test: ELISA, blocking of mouse PD-1 binding to coated mouse PD-L1 protein
T7 construct: Bought protein; construct not described; also called mPD-L1 protein
T7 sequence (Q9EP73 19-239 limits assumed): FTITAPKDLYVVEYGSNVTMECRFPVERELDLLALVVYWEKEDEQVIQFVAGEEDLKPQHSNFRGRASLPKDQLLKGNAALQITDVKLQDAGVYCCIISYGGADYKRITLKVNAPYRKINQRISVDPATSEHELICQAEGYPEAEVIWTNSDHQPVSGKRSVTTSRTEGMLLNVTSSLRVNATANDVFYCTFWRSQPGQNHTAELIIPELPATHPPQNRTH
Protocol: as §4

[17] = target: T7, mouse PD-L1 protein (G&P Biosciences, …); test: blocking of the mouse PD-1/PD-L1 interaction (text value, differs from Table 3); text of paragraph 79, not Table 3
Protocol: as §4

[18] = target: T3, recombinant human PD-L1 extracellular …; test: blocking of the human CD80/PD-L1 interaction

Sequence of mouse PD-L1 protein (G&P Biosciences, cat #FCL3502B) (mouse) (Q9EP73 19-239 limits assumed): as above

Molecule | % Blocking efficiency at 10 µM (ELISA) hPD-L1 [4] [%] | Kd (bovine serum albumin [5]) [nM] | Kd [6] [nM] | % Blocking efficiency at 10 µM [9] [%] | Blocking Efficiency (%) [10] [%] | blocking efficiency at 10 µM [11] [%] | binding result (bovine serum albumin [12]) | Blocking Efficiency (%) [13] [%] | Kd [14] [nM] | koff [14] [s⁻¹] | kon [14] [M⁻¹ s⁻¹] | Blocking Efficiency (%) [15] [%] | IC50 [15] [nM] | Blocking Efficiency (%) [16] [%] | IC50 [16] [nM] | IC50 [10] [nM] | IC50 [13] [nM] | other results
anti-mouse PD-L1 antibody (BioXcell, 10F.9G2) | – | – | – | – | – | – | – | – | – | – | – | – | – | – | – | – | – | blocking efficiency at 10 µM [1]: 92%
CHRSYYTWNLNC (disulfide 1-12, Cyclic variant of CLP002) [CLP2C14] | 75 | 408 | 2.78 | 75 | – | – | – | – | – | – | – | – | – | – | – | – | – | IC50 [2]: 180 nM; IC50 [3]: 119 nM; IC50 [7]: 550 nM; IC50 [8]: 5 nM
HYPFRPHANQAS (not fully specified, 12-mer from phage display) [CLP001 peptide] | – | – | – | – | 0 | ~17 | no binding | 0 | 534 | 0.00281 | 5190 | 35 | 910 | 34 | 2430 | – | – | –
WHRSYYTWN (Truncated form of CLP002 (9 residues)) [CLP2TR3] | 80 | 2050 | 258 | 80 | – | – | – | – | – | – | – | – | – | – | – | – | – | –
WHRSYYTWNLNT (not fully specified, 12-mer from phage display) [CLP002 peptide] | – | – | – | – | 85 | ~48 | no binding | 80 | 366 | 0.00145 | 4520 | 61 | 2440 | 68 | 1910 | 2170 | 1430 | IC50 [17]: 1510 nM; IC50 [18]: 2450 nM
DYHDPSLPTLRK (not fully specified, 12-mer from phage display) [CLP004 peptide] | – | – | – | – | 52 | ~27 | no binding | 60 | 544 | 0.00275 | 5140 | 34 | 730 | 48 | 1910 | 1170 | 200 | –
WHFSYNWRWLPP (not fully specified, 12-mer from phage display) [CLP003 peptide] | – | – | – | – | 60 | ~48 | no binding | 56 | 117 | 0.00162 | 22600 | 50 | 1000 | 46 | 2260 | 2220 | 3050 | IC50 [17]: 1960 nM; IC50 [18]: 1620 nM
CHRSYYCWNLNT (disulfide 1-7, Cyclic variant of CLP002) [CLP2C21] | 85.9 | 1240 | 124 | 78 | – | – | – | – | – | – | – | – | – | – | – | – | – | IC50 [2]: 440 nM; IC50 [3]: 143 nM; IC50 [7]: 460 nM; IC50 [8]: 6 nM

From patent US20220119451A1 (published 2022)
